US20250000992A1 (Eli Lilly, published 2025)

Molecular target: T1, Sortilin receptor on HEK293 cells (UniProt Q99523 78-831, limits assumed)
T1 construct: whole, on cells
Assay: +/- matrix drawn left of the bar chart (Cathepsin D ELISA, HEK293 cells); the binding assay behind the marks is not given

B1: His-PGRN (ligand)
single chain: HHHHHHGGGGQGGGGQGGGGQENLYFQSGGGGQTRCPDGQFCPVACCLDPGGASYSCCRPLLDKWPTTLSRHLGGPCQVDAHCSAGHSCIFTVSGTSSCCPFPEAVACGDGHHCCPRGFHCSADGRSCFQRSGNNSVGAIQCPDSQFECPDFSTCCVMVDGSWGCCPMPQASCCEDRVHCCPHGAFCDLVHTRCITPTGTHPLAKKLPAQRTNRAVALSSSVMCPDARSRCPDGSTCCELPSGKYGCCPMPNATCCSDHLHCCPQDTVCDLIQSKCLSKENATTDLLTKLPAHTVGDVKCDMEVSCPDGYTCCRLQSGAWGCCPFTQAVCCEDHIHCCPAGFTCDTQKGTCEQGPHQVPWMEKAPAHLSLPDPQALKRDVPCDNVSSCPSSDTCCQLTSGEWGCCPIPEAVCCSDHQHCCPQGYTCVAEGQCQRGSEIVAGLEKMPARRASLSHPRDIGCDQHTSCPVGQTCCPSLGGSWACCQLPHAVCCEDRQHCCPAGYTCNVKARSCEKEVVSAQPATFLARSPHVGVKDVECGEGHFCHDNQTCCRDNRQGWACCPYRQGVCCADRRHCCPAGFRCAARGTKCLRREAPRWDAPLRDPALRQLL
notes: 55; also called His tagged PGRN; His-Tagged PGRN
  binding result: binds
